Measurements taken from patent US6358738 (Harvard, dated 2002).

Tests used:
[1] = molecular target: T1, Plk 323-499 (two-hybrid bait, wild-type polo box) (murine (mammalian Plk), UniProt Q07832 323-499); experiment: yeast two-hybrid
T1 construct: Bait fusion expressed in yeast

[2] = molecular target: T2, GST-fusion protein of full-length TCTP/p23
T2 chain: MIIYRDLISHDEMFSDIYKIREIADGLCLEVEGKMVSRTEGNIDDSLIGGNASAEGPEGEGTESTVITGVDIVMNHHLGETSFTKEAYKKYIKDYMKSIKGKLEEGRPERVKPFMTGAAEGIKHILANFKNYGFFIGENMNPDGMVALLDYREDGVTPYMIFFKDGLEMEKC

HA-Snk = HA-Snk (UniProt P53351 1-682); experiment: interaction of recombinant proteins produced in insect cells with baculovirus (GST-fusion)
HA-Snk, sequence (P53351 whole entry, the tested form may be a part): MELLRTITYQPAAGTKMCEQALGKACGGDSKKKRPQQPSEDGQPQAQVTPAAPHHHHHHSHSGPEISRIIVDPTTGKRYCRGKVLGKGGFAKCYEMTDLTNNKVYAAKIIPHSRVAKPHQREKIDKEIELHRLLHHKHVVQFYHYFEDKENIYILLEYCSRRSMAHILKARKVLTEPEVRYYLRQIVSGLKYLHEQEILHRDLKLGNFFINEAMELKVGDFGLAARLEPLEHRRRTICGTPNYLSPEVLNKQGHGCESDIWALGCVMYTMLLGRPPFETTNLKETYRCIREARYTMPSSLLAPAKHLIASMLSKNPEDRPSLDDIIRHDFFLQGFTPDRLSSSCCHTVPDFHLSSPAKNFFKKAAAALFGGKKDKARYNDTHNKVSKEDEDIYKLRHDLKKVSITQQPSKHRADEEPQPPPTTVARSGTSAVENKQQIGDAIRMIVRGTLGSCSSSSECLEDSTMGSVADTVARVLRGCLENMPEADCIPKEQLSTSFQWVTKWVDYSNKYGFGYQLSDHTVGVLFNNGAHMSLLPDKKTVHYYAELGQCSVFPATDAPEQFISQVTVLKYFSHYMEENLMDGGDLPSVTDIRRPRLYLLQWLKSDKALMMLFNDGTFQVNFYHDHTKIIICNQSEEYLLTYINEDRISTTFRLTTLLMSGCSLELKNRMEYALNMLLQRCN
From the text: Full-length TCTP/p23 (SEQ ID No:27) cDNA was isolated and cloned into a pGEX vector to produce a GST-fusion protein.

[3] = molecular target: T1, Plk 323-499 (two-hybrid bait, wild-type …); experiment: yeast two-hybrid screen, mouse embryo cDNA library
From the text: Using the terminology of the two-hybrid system (Vojtek et al., 1993), vectors were engineered to have Plk carboxy terminal constructs as bait (see FIG. 11) and a mouse embryo 9.5/10.5-day cDNA library as prey. (A different strategy was used to identify TCTP/p23, i.e., full length Plk and a cDNA library from HeLa cells with inserts of 1–2 kb in the Examples, infra).

B1: chaperonin-containing-TCP (CCT) epsilon subunit, amino acid residues 13-139, two-hybrid prey clone (other, not shown: large carriers)
chain: GRPFLIIKDQDRKSRLMGLEALKSHIMAAKAVANTMRTSLGPNGLDKMMVDKDGDVTITNDGATILSMMDVDHQIAKLMVELSKSQDDEIGDGTTGVVVLAGALLEEAEQLLDRGIHPIRIADGYEQ
notes: also called CCT-ε
binding result [1]: binds

B2: HA-Plk (protein)
chain: MNAAAKAGKLARAPADLGKGGVPGDAVPGAPVAAPLAKEIPEVLVDPRSRRQYVRGRFLGKGGFAKCFEISDADTKEVFAGKIVPKSLLLKPHQKEKMSMEISIHRSLAHQHVVGFHDFFEDSDFVFVVLELCRRRSLLELHKRRKALTEPEARYYLRQIVLGCQYLHRNQVIHRDLKLGNLFLNEDLEVKIGDFGLATKVEYEGERKKTLCGTPNYIAPEVLSKKGHSFEVDVWSIGCIMYTLLVGKPPFETSCLKETYLRIKKNEYSIPKHINPVAASLIQKMLQTDPTARPTIHELLNDEFFTSGYIPARLPITCLTIPPRFSIAPSSLDPSSRKPLKVLNKGVENPLPDRPREKEEPVVRETNEAIECHLSDLLQQLTSVNASKPSERGLVRQEEAEDPACIPIFWVSKWVDYSDKYGLGYQLCDNSVGVLFNDSTRLILYNDGDSLQYIERDGTESYLTVSSHPNSLMKKITLLNYFRNYMSEHLLKAGANITPREGDELARLPYLRTWFRTRSAIILHLSNGTVQINFFQDHTKLILCPLMAAVTYINEKRDFQTYRLSLLEEYGCCKELASRLRYARTMVDKLLSSRSASNRLKAS
phosphorylation of TCTP/p23 by Plk kinase activity [2]: phosphorylated by Plk on serine residues at positions 46 and 64

B3: GST-fusion protein of full-length TCTP/p23 (other)
chain: T2 chain
notes: Full-length TCTP/p23 cDNA cloned into a pGEX vector to produce a GST-fusion protein; also called GST-TCTP/p23; not shown: glutathione-S-transferase (GST) from pGEX vector
binding result (HA-Snk): no binding

B4: Plk 500-603 (two-hybrid prey clone) (other, not shown: large carriers)
chain: REGDELARLPYLRTWFRTRSAIILHLSNGTVQINFFQDHTKLILCPLMAAVTYINEKRDFQTYRLSLLEEYGCCKELASRLRYARTMVDKLLSSRSASNRLKAS
binding result [3]: binds
